The values that follow come from PMC3574121.

The target of test [1] is His-tagged FIV recombinant p24 capsid protein (Feline Immunodeficiency Virus, Petaluma strain) (Feline immunodeficiency virus (Petaluma strain)) (UniProt P16087). The test is described as follows: dynamic light scattering; p24-His at 7 mg/ml, 50 mM sodium phosphate pH 7.4, 23°C; mean diameter 6.8 nm, single peak; monomer to dimer.
For test [2] the target is unchanged. The test is described as follows: cross-linking; p24 at 7 mg/ml with BS3 (20:1 w/w BS3:p24), 30 min at room temperature, SDS-PAGE; dimer seen with and not without BS3; no higher molecular weight species.
Test [3] has the same target. Nature of the test: ITC; dilution ITC: p24 at 7 mg/ml (243 µM) injected into buffer alone, 50 mM sodium phosphate pH 7.4, 30°C; dimer dissociation model; dimer to monomers.

Regarding “His-tagged FIV recombinant p24 capsid protein (Feline Immunodeficiency Virus, Petaluma strain) (from UniProt P16087 136-357) (natural protein)”, the stoichiometry N in test [1] and in test [2] was 2 each time. Moreover, the Kd in test [3] is 20 µM.

Broadly, the stoichiometry N is a count of units in the complex or per binding partner. The term Kd denotes the free concentration of one partner at which half of the binding sites on the other are occupied at equilibrium, for simple one-to-one binding.
